From patent US20100150950A1, “HUMAN ANTIBODIES THAT BIND CD70 AND USES THEREOF” (Medarex, Inc., priority 2006, published 2010)

Tests used:
[1] = tested on: peptide specific CD8+ T cells; test: CMV peptide specific CD8+ T cell expansion in PBMC; assay type: cell-based, human
Procedure: Human MHC class I haplotype B*3501+ peripheral blood mononuclear cells (PBMC) pre-screened for cytomegalovirus (CMV) specific T cell responses (Astarte, Inc) were cultured in the presence of 25 ng/ml of B*3501 binding CMV peptide […] (SEQ ID NO:90) (ProImmune, Oxford, UK) and serial dilutions of the HuMAb 2H5 for 11 days. Cultures were analyzed by flow cytometry for CD8+ T cells by PE conjugated anti-CD8 staining (clone RPA-T8, BD Biosciences), for peptide specific CD8+ T cells by APC labeled peptide-MHC Class I pentameric oligomer staining (F114-4B; ProImmunc) and for viability by lack of propidium iodide staining. An isotype control antibody was used as a negative control. […] CD8+ T cell expansion (FIG. 37A). […] Data is representative of one additional experiment performed with the same donor.
Human MHC class I haplotype B*3501+PBMC pre-screened for cytomegalovirus (CMV) specific T cell responses (Astarte, Inc) were cultured in presence of 25 ng/ml of B*3501 binding CMV peptide […] (ProImmune) (SEQ ID NO:90) and 20 μgs/ml of the HuMAb 2H5 in the presence or absence of serial dilutions of an anti-human CD16 (FcRγIII) functional blocking Ab (clone 3G8; BD Biosciences) for 11 days and were then analyzed by flow cytometry for peptide specific CD8+ cell numbers as described above. […] Approximately 1000-fold more 3G8 was required to reverse 2H5 NF mediated inhibition compared to 2H5.

MEC-1 cells = test: ADCC fluorescence cytotoxicity assay, MEC-1; assay type: cell-based, human; settings: target to effector ratio 1:50
Procedure: In this example, a defucosylated and non-defucosylated anti-CD70 monoclonal antibody was tested for the ability to kill CD70+cells in the presence of effector cells via antibody dependent cellular cytotoxicity (ADCC) in a fluorescence cytotoxicity assay
Human Anti-CD70 monoclonal antibody 2H5 was defucosylated as described above. Human effector cells were prepared from whole blood as follows. Human peripheral blood mononuclear cells were purified from heparinized whole blood by standard Ficoll-paque separation. The cells were resuspended in RPMI1640 media containing 10% FBS (culture media) and 200 U/ml of human IL-2 and incubated overnight at 37° C. The following day, the cells were collected and washed once in culture media and resuspended at 2×10^7 cells/ml. […]
The CD70+ cell lines ARH-77 (human B lymphoblast leukemia; ATCC Accession No. CRL-1621), MEC-1 (human chronic B cell leukemia; DSMZ Accession No. ACC 497), SU-DHL-6 (human B cell lymphoma, DSMZ Accession No. Acc572), IM-9 (human B lymphoblast; ATCC Accession No. CCL-159) and HuT 78 (human cutaneous lymphocyte lymphoma; ATCC Accession No. TIB-161), were tested for antibody specific ADCC to the defucosylated and non-defucosylated human anti-CD70 monoclonal antibody 2H5 using the Delfia fluorescence emission analysis as follows. […]

B1: 2H5 NF: 2H5 HuMAb lacking fucosyl residues, expressed in CHO cell line Ms704-PF (antibody, V domains shown)
VH: QVQLVESGGGVVQPGRSLRLSCAASGFTFSSYIMHWVRQAPGKGLEWVAVISYDGRNKYYADSVKGRFTISRDNSKNTLYLQMNSLRAEDTAVYYCARDTDGYDFDYWGQGTLVTVSS
VL: EIVLTQSPATLSLSPGERATLSCRASQSVSSYLAWYQQKPGQAPRLLIYDASNRATGIPARFSGSGSGTDFTLTISSLEPEDFAVYYCQQRTNWPLTFGGGTKVEIK
B1 was tested, and the “peptide specific CD8+ T cell expansion” value ([1]; 25 ng/ml CMV peptide, 11 days) was “completely inhibited”, the “total CD8+ cell numbers” value ([1]; 25 ng/ml CMV peptide, 11 days) was “no significant reduction” and the “3G8 required to reverse inhibition compared to 2H5” value ([1]; antibody 20 μgs/ml) was “Approximately 1000 fold”. For the same molecule, the “effect of anti-CD16 Ab 3G8 on inhibition of peptide specific CD8+ T cell expansion” value ([1]; antibody 20 μgs/ml, serial dilutions of 3G8) was “Dose dependent reversal” and the “ADCC, % specific lysis of MEC-1” value (MEC-1 cells) was “increased percentage of specific lysis”.
